Patent publication US20200339648A1 (University of Washington, published 2020)
Changes are numbered by the printed parent chain. One block for each molecule: values may come before it.

What was measured:
[1] = molecular target: human IL-2Rβγc on human cells (YT-1 NK cells) (human) (UniProt P14784); experiment: cell-based or functional assay
[2] = molecular target: T1, mouse IL-2 receptor β subunit (mIL-2Rβ) (mouse, UniProt P16297 27-240, biotin on the C-terminal biotin acceptor peptide); experiment: SPR, equilibrium titration; biotinylated IL-2Rβ on streptavidin chip
T1 construct: extracellular domain; Biotinylated form for SPR; also called MmIL-2Rβ; murine IL-2Rβ
T1 sequence: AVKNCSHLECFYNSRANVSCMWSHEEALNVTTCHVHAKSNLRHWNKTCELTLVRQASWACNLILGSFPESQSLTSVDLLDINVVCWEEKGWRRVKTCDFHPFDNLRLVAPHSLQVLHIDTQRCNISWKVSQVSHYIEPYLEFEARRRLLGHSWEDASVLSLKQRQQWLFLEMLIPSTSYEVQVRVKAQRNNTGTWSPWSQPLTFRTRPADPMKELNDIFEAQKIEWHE
Method: (§1) Less than 100 response units (RU) of each ligand was immobilized to minimize mass transfer effects. […] Surface regeneration for all interactions was conducted using 15 s exposure to 1 M MgCl2 in 10 mM sodium acetate pH 5.5. SPR experiments were carried out in HBS-P+ buffer (GE Healthcare) supplemented with 0.2% bovine serum albumin (BSA) at 25° C. and all binding studies were performed at a flow rate of […] to prevent analyte rebinding. Data was visualized and processed using the Biacore T100 evaluation software version 2.0 (GE Healthcare). Equilibrium titration curve fitting and equilibrium binding dissociation (KD) value determination was implemented using GraphPad Prism assuming all binding interactions to be first order. Biolayer interferometry: binding data were collected in a Octet RED96 (ForteBio, Menlo Park, Calif.) and processed using the instrument's integrated software using a 1:1 binding model. […] Analyte proteins were diluted from concentrated stocks into binding buffer. After baseline measurement in binding buffer alone, the binding kinetics were monitored by dipping the biosensors in wells containing 100 nM of the designed protein (association) and then dipping the sensors back into baseline wells (dissociation).

[3] = molecular target: T2, human IL-2 receptor β subunit (hIL-2Rβ) (human, UniProt P14784 27-240, biotin on the C-terminal biotin acceptor peptide); experiment: as above
T2 construct: Biotinylated and immobilised on streptavidin; also called HsIL-2Rβ; human IL-2Rβ
T2 sequence: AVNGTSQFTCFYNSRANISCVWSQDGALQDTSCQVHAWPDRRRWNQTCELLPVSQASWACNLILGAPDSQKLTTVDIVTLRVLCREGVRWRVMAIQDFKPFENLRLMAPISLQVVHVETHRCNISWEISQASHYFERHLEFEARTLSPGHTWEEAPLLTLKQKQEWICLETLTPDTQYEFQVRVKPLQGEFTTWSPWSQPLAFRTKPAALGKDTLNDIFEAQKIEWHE
Method: as §1

[4] = molecular target: human IL-2 receptor βγc heterodimer (hIL-2Rβγc), soluble (human) (UniProt P14784); experiment: SPR, equilibrium titration; IL-2Rγ on streptavidin chip, saturating IL-2Rβ in solution
[5] = molecular target: mouse IL-2 receptor βγc heterodimer (mIL-2Rβγc), soluble (mouse) (UniProt P16297); experiment: as above
[6] = molecular target: T3, human IL-2 receptor βγc heterodimer (hIL-2Rβγc), soluble (human, UniProt P14784 27-240; P31785 23-254, biotin on the C-terminal biotin acceptor peptide); experiment: as above
T3 construct: also called HsIL-2Rβγc; hIL-2Rβνc
T3 sequence 1: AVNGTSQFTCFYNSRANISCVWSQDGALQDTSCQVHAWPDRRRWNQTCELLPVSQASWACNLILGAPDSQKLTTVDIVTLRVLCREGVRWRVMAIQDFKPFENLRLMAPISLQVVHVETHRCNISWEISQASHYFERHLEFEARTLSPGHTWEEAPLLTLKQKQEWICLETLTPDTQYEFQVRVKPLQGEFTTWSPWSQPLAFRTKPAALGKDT
T3 sequence 2: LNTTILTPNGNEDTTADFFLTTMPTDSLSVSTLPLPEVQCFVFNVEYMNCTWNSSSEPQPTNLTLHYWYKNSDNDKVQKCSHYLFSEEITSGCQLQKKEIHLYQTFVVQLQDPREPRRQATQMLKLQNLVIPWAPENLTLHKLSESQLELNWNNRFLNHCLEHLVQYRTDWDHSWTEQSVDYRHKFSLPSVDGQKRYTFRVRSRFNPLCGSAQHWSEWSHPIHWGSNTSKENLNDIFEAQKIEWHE
Method: as §1

[7] = molecular target: T4, human IL-2Rβγc on human cells (YT-1 NK cells) (human, UniProt P14784 27-551; P31785 23-369); experiment: cell-based or functional assay
T4 sequence (looked up) 1: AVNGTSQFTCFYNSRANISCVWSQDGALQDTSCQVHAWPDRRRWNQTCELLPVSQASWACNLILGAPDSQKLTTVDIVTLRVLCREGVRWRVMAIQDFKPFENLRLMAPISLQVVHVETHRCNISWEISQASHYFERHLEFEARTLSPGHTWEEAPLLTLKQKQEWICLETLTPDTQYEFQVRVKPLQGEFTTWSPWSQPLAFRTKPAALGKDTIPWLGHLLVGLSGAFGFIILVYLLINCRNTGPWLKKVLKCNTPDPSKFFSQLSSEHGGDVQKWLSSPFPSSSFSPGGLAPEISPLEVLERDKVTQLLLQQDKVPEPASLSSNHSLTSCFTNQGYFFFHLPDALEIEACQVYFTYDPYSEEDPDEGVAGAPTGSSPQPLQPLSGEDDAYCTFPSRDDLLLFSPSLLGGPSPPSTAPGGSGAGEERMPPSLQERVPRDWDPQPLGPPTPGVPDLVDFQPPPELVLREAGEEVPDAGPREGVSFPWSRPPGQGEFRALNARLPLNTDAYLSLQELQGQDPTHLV
T4 sequence (looked up) 2: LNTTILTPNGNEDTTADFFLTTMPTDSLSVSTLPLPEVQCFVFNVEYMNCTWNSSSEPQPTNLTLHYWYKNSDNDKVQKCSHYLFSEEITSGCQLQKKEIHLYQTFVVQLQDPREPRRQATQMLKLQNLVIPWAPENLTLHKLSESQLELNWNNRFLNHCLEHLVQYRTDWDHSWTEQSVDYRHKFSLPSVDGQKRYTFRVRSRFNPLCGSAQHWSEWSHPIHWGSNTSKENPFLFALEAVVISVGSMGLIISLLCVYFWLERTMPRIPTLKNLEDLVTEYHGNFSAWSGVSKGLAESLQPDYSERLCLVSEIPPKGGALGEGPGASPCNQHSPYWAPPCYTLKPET

[8] = molecular target: T5, fluorescently labeled chimeric hIL-2Rβγc (human, UniProt P14784 27-240; P31785 23-254); experiment: yeast display, flow cytometry
T5 construct: How beta and gamma are joined and labeled is not described; also called fluorescently-tagged beta-gamma chimeric IL-2 receptor; chimeric ILRβγc
T5 sequence (looked up) 1: T3 sequence 1
T5 sequence (looked up) 2: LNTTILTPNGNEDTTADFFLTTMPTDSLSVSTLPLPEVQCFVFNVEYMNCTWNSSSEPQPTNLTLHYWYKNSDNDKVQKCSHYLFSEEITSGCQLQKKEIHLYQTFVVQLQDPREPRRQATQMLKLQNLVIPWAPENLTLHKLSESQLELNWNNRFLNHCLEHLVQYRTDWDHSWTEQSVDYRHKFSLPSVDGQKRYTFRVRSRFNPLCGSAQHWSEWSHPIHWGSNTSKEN

[9] = molecular target: T6, mouse IL-2 receptor βγc heterodimer (mIL-2Rβγc), soluble (mouse, UniProt P16297 27-240; P34902 23-263, biotin on the C-terminal biotin acceptor peptide); experiment: affinity maturation by yeast display for human and mouse IL-2Rβνc
T6 construct: extracellular domain; also called MmIL-2Rβγc; mIL-2Rβνc
T6 sequence 1: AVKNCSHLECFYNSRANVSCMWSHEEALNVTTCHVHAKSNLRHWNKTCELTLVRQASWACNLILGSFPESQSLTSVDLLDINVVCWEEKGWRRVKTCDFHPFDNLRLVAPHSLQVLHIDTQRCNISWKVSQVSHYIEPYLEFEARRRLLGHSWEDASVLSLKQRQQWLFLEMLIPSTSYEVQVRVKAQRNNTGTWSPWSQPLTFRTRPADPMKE
T6 sequence 2: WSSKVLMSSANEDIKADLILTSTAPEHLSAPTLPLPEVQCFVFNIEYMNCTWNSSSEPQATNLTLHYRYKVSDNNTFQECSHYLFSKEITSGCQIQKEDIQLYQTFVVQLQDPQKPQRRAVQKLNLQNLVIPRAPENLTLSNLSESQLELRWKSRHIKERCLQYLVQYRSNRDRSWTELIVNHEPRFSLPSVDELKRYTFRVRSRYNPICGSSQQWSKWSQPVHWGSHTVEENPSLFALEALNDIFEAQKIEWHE
Method: (§2) The vector was linearized by 100 fold overdigestion by NdeI and XhoI (New England Biolabs) and then purified by gel extraction (Qiagen). The genes included 50 bases of overlap with the vector on both the 5′ and 3′ ends such that homologous recombination would place the genes in frame between the AGA2 gene and the myc tag on the vector. Yeast were grown in C-Trp-Ura media prior to induction in SGCAA media as previously described. […] After approximately 30 minutes, cells were washed again in chilled buffer, and then incubated on ice for 5 minutes with FITC-conjugated anti-c-Myc antibody (1 uL per 3×10⁶ cells) and streptavidin-phycoerythrin (1 uL per 100 uL volume of yeast). Yeast were then washed and counted by flow cytometry (Accuri C6) or sorted by FACS (Sony SH800).

[10] = molecular target: T3, human IL-2 receptor βγc heterodimer …; experiment: as above
Method: as §2

[11] = molecular target: T7, IL-2Rβγc (species not stated); experiment: biolayer interferometry
T7 chain 1: T3 sequence 1
T7 chain 2: T5 sequence (looked up) 2

binding result [8]: no binding (tested: 2 nM)
B2: G1_neo2_44 (designed binder)
chain: STKKIQLQLEHALLDVQMALNRSPEPNESLNRMITWLQSWISTGKIDLDNAQEMCKEAEKIRKEMEKRGIDVRDLISNICVILLELS

binding result [9]: binds
binding result [10]: binds
B3: G2_neo2_40_1F_seq36_S12 (designed binder)
chain: PKKKIQLLAEHALFDLLMILNIVKTNSQNAEEKLEDYAYNAGVILEEIARLFESGDQKDEAEKAKRMKEWMKRIKDTASEDEQEEMANEIITILQSWNFS

binding result [8]: no binding (tested: 2 nM)
B4: G1_neo2_35 (designed binder)
chain: STKKWQLQAEHALLDWQMALNKSPEPNENLNRAITAAQSWISTGKIDCDKAEDIRRNSDQARREAEKRGIDVRDLISNAQVILLEAC

binding result [9]: binds
binding result [10]: binds
B7: G2_neo2_40_1F_seq29_S6 (designed binder)
chain: EDYYSNLKLILEELAREMERNGLSDKAEEWRQWKKIVERIRQIRSNNSDLNEAKELLNRLITYIQSQIFEVLHGVGETDQEKKEESWKKWDLLLEHALLDVLMLLND

binding result [9]: binds
binding result [10]: binds
B8: G2_neo2_40_1F_seq29_S7 (designed binder)
chain: B7 chain with L9V, R59E, L72I, H73E, G74R, V75E, D91E, L93H

binding result [9]: binds
binding result [10]: binds
B12: G2_neo2_40_1F_seq27_S22 (designed binder)
chain: TKKDAELLAEFALYDALMLLNLSSESNERLNEIITWLQSIIFYGTYDPDMVKEAVKLADEIEDEMRKRGIDTEDYVSNLRLILQELA

Continued, molecule first:

Molecule: Super-2/Superkine (PDB: 3QAZ) (ligand)
EC50 (CD25-) pSTAT5p, human NK (YT, CD25-) cells [1]: 70 pM
Kd [2]: 214 nM
Kd [3]: 2 nM
Kd [4]: 301 nM
Kd [5]: 312 nM

B1: G1_neo2_43 (designed binder)
chain: B2 chain with W40C, I46C, C55A, C80I
notes: Single-disulfide stapled variation; In yeast display between Aga2 and a myc tag; also called G1_ne02_43
Kd [3]: 2860 nM
Kd [6]: 533 nM
EC50 (CD25-) pSTAT5p, human NK (YT, CD25-) cells [7]: 0.21 nM

B5: Neoleukin-2/15 internal disulfide variant (disulfide between residues 38 and 75) (designed binder)
chain: PKKKIQLHAEHALYDALMILNIVKTNSPPAEEKLEDYCFNFELILEEIARLFESGDQKDEAEKAKRMKEWMKRICTTASEDEQEEMANAIITILQSWIFS
modifications: disulfide bond between the cysteines at residues 38 and 75
notes: also called internal disulfide-staple
Kd [11]: ~1.3 nM

B6: Neoleukin-2/15 terminal disulfide variant (CNSN and NFQC added at the termini) (designed binder)
chain: CNSNKKKIQLHAEHALYDALMILNIVKTNSPPAEEKLEDYAFNFELILEEIARLFESGDQKDEAEKAKRMKEWMKRIKTTASEDEQEEMANAIITILQSWIFNFQC
modifications: disulfide bond between the N-terminal and the C-terminal cysteine
notes: also called external disulfide-staple
Kd [11]: ~1.8 nM

B9: G1_neo2_40 (designed binder)
chain: STKKLQLQAEHALLDAQMMLNRSPEPNEKLNRIITTMQSWISTGKIDLDGAKELAKEVEELRQEAEKRGIDVRDLASNLKVILLELA
notes: also called G1_ne02_40
Kd [3]: 1460 nM
Kd [6]: 260 nM
EC50 (CD25-) pSTAT5p, human NK (YT, CD25-) cells [7]: 0.14 nM

B10: G1_neo2_41 (designed binder)
chain: B9 chain with W40C, I46C
notes: Single-disulfide stapled variation; In yeast display between Aga2 and a myc tag; also called G1_ne02_41
Kd [3]: 721 nM
Kd [6]: 187 nM
EC50 (CD25-) pSTAT5p, human NK (YT, CD25-) cells [7]: 70 pM

B11: G2_neo2_40_1F_seq27_S18 (designed binder)
chain: B12 chain with K2N, D4E, E6Q, L8H, E32R, G44E, G69K, S77V
binding result [9]: binds
binding result [10]: binds
